From patent CN117126289A (SUNSHINE GUOJIAN PHARMACEUTICAL SHANGHAI CO LTD, dated 2023)

B1: 人源化SP34 (抗CD3单抗阳性对照) (antibody, human IgG1, kappa, V domains shown)
VH: EVQLVESGGGLVQPGGSLRLSCAASGFTFNTYAMNWVRQAPGKGLEWVARIRSKYNNYATYYADSVKDRFTISRDDSKNTLYLQMNSLRAEDTAVYYCVRHGNFGNSYVSWFAYWGQGTLVTVSS
VL: QAVVTQEPSLTVSPGGTVTLTCRSSTGAVTTSNYANWVQQKPGQAPRGLIGGTNKRAPGVPARFSGSLLGGKAALTLSGAQPEDEAEYYCALWYSNLWVFGQGTKVEIKR
notes: Full-length humanised SP34: VH + human IgG1 constant region, VL + human Kappa constant region; also called 阳性对照CD3单抗; 人源化SP34单克隆抗体
B2: KM4097HV3aLV0人源化单克隆抗体 (抗TROP-2单抗阳性对照) (antibody, V domains shown)
VH: QVQLVQSGPEVKKPGASVKVSCKASGYTFTIYWLGWVRQAPGQGLEWMGNIFPGSAYINYNEKFKGKVTITADTSTSTAYMELSSLRSEDTAVYFCAREGSNSGYWGQGTLVTVSS
VL: DIVMTQSPDSLAVSLGERATINCKSSQSLLNSGNQQNYLAWYQQKPGQPPKLLIYGASTRESGVPDRFSGSGSGTDFTLTISSLQAEDVAVYYCQSDHIYPYTFGQGTKLEIKR
notes: IgG (detected with anti-human Fc); also called 阳性对照抗TROP-2单抗

Tests used:
[1] = target: T1, 重组Human-CD3-FC蛋白 (human); experiment: ELISA, coated CD3-FC 200 ng/ml, HRP goat anti-human Fab
T1 chain: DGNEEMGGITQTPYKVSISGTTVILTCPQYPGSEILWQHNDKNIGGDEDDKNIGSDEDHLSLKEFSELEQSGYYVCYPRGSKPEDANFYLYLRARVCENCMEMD

[2] = target: T2, 重组Human-TROP-2-HIS蛋白 (human, UniProt P09758 27-274, limits assumed); experiment: ELISA, coated TROP-2-HIS 200 ng/ml, HRP goat anti-human Fc
T2 construct: Bought protein; also called TROP-2-HIS蛋白 (恺佧, TRP-HM121); not shown: His tag
T2 sequence (looked up): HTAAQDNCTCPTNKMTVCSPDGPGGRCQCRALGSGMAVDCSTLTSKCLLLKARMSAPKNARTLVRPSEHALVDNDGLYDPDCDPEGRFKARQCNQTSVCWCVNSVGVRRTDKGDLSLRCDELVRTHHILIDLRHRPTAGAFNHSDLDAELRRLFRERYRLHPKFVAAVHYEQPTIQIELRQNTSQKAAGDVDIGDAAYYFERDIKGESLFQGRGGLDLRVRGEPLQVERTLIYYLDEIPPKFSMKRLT

Binder | EC50 [1] [nM] | EC50 [2] [nM]
B1 | 0.0618 | 
B2 |  | 0.0261
